The values that follow come from patent EP4745156A1 (Beijing Vjtbio Co., Ltd., dated 2026).

The target of this test is T1, His-tagged canine IL-31 (interleukin 31) recombinant protein (canine).
T1 construct: Expressed in HEK293 cells, purified on a Ni column; unlabelled analyte in BLI; also called canine IL-31 recombinant protein; biotin-labeled canine IL-31 recombinant protein
As to the kind of experiment: BLI (Gator), biotinylated antibody on streptavidin probe, canine IL-31 as analyte.

B1: Lokivetmab (antibody, V domains shown)
VH: EVQLVESGGDLVKPGGSLRLSCVASGFTFSNYGMSWVRQAPGKGLQWVATISYGGSYTYYPDNIKGRFTISRDNAKNTLYLQMNSLRAEDTAMYYCVRGYGYDTMDYWGQGTLVTVSS
VL: EIVMTQSPASLSLSQEEKVTITCKASQSVSFAGTGLMHWYQQKPGQAPKLLIYRASNLEAGVPSRFSGSGSGTDFSFTISSLEPEDVAVYYCQQSREYPWTFGQGTKLEIKR
Consider B1, for which the Kd amounted to 19.3 nM, the koff amounted to 0.00203 s⁻¹ and the kon was 105000 M⁻¹ s⁻¹.

What is called Kd is the equilibrium constant for the complex coming apart. As a reminder, the koff is a measure of how fast the partners let go of each other. A word on the kon: it is the rate constant with which the complex forms.
